# Test system: Escherichia coli TOP10
# Assay: shrunken log2 fold change of peptide-encoding DNA abundance (4.5 h post-induction vs induction); higher = less antimicrobial activity (less host growth inhibition)
# Conditions: time post-induction: 4.5 h; library: site-saturation at positions 5, 18, 19, 20
# 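Note: peptides expressed intracellularly from a pBAD plasmid library in pooled LB shake-flask culture, induced with 0.3% L-arabinose, DNA abundance read by NGS, three biological replicates, DESeq2 with apeglm shrinkage.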
row,Sequence,shrunken log2 fold change
1,RRIRARPPRLPRPRPRPIRWPRP,0.211
2,RRIRYRPPRLPRPRPRPGWEPRP,-0.143
3,RRIRPRPPRLPRPRPRPPMQPRP,0.421
4,RRIRFRPPRLPRPRPRPHGTPRP,-0.134
5,RRIRIRPPRLPRPRPRPEIKPRP,-0.14
6,RRIRCRPPRLPRPRPRPCKSPRP,-0.0591
7,RRIRPRPPRLPRPRPRPWTCPRP,-0.0575
8,RRIRDRPPRLPRPRPRPMTFPRP,-0.0951
9,RRIRDRPPRLPRPRPRPTSFPRP,-0.0323
10,RRIRHRPPRLPRPRPRPMANPRP,-0.0536
11,RRIRTRPPRLPRPRPRPKCLPRP,-0.0528
12,RRIRKRPPRLPRPRPRPNNGPRP,-0.324
13,RRIRIRPPRLPRPRPRPRTYPRP,-0.726
14,RRIRDRPPRLPRPRPRPQYNPRP,-0.446
15,RRIRKRPPRLPRPRPRPPWRPRP,0.734
16,RRIRHRPPRLPRPRPRPMQIPRP,0.093
17,RRIRYRPPRLPRPRPRPYQAPRP,-0.0933
18,RRIRSRPPRLPRPRPRPMVLPRP,0.114
19,RRIRMRPPRLPRPRPRPYFLPRP,-0.542
20,RRIRSRPPRLPRPRPRPMEKPRP,-0.0205
21,RRIRLRPPRLPRPRPRPGGEPRP,0.343
22,RRIRERPPRLPRPRPRPKDQPRP,0.188

row,Sequence,shrunken log2 fold change
1,RRIRERPPRLPRPRPRPSCDPRP,-0.281
2,RRIRGRPPRLPRPRPRPQLEPRP,0.838
3,RRIRKRPPRLPRPRPRPKSMPRP,0.375
4,RRIRHRPPRLPRPRPRPCKCPRP,-0.174
5,RRIRERPPRLPRPRPRPMDCPRP,-0.149
6,RRIRRRPPRLPRPRPRPNREPRP,0.232
7,RRIRARPPRLPRPRPRPPRCPRP,0.931
8,RRIRQRPPRLPRPRPRPANMPRP,-0.242
9,RRIRVRPPRLPRPRPRPRMMPRP,0.0121
10,RRIRERPPRLPRPRPRPYRYPRP,-0.107
11,RRIRFRPPRLPRPRPRPQDVPRP,-0.193
12,RRIRVRPPRLPRPRPRPYHFPRP,-0.111
13,RRIRLRPPRLPRPRPRPPCIPRP,-0.519
14,RRIRWRPPRLPRPRPRPFKMPRP,-0.0125
15,RRIRNRPPRLPRPRPRPCMHPRP,-0.0807
16,RRIRIRPPRLPRPRPRPCWHPRP,-0.428
17,RRIRERPPRLPRPRPRPDIEPRP,-0.0223
18,RRIRYRPPRLPRPRPRPDEAPRP,0.033
19,RRIRRRPPRLPRPRPRPYDWPRP,-0.0665
20,RRIRLRPPRLPRPRPRPFHEPRP,-0.101
21,RRIRFRPPRLPRPRPRPSAYPRP,-0.791
22,RRIRIRPPRLPRPRPRPSEDPRP,-0.212

row,Sequence,shrunken log2 fold change
1,RRIRMRPPRLPRPRPRPWHPPRP,-0.297
2,RRIRSRPPRLPRPRPRPKMCPRP,-0.015
3,RRIRNRPPRLPRPRPRPGNDPRP,-0.0364
4,RRIRDRPPRLPRPRPRPDPLPRP,0.64
5,RRIRFRPPRLPRPRPRPAKCPRP,-0.00691
6,RRIRERPPRLPRPRPRPAVPPRP,0.0842
7,RRIRGRPPRLPRPRPRPNYQPRP,-0.173
8,RRIRSRPPRLPRPRPRPSNRPRP,-0.114
9,RRIRNRPPRLPRPRPRPSHDPRP,-0.516
10,RRIRHRPPRLPRPRPRPHWQPRP,-0.00133
11,RRIRCRPPRLPRPRPRPIPTPRP,-0.0788
12,RRIRNRPPRLPRPRPRPEWSPRP,0.406
13,RRIRIRPPRLPRPRPRPAECPRP,-0.311
14,RRIRWRPPRLPRPRPRPWGQPRP,-0.0525
15,RRIRPRPPRLPRPRPRPYWQPRP,0.0184
16,RRIRIRPPRLPRPRPRPFGEPRP,-0.202
17,RRIRCRPPRLPRPRPRPCCMPRP,-0.392
18,RRIRDRPPRLPRPRPRPTFKPRP,-0.0434
19,RRIRNRPPRLPRPRPRPSWGPRP,-0.139
20,RRIRHRPPRLPRPRPRPVSCPRP,0.011
21,RRIRDRPPRLPRPRPRPSTHPRP,-0.247
22,RRIRWRPPRLPRPRPRPLRGPRP,1.01

row,Sequence,shrunken log2 fold change
1,RRIRERPPRLPRPRPRPYIKPRP,-0.573
2,RRIRVRPPRLPRPRPRPFEYPRP,-0.151
3,RRIRYRPPRLPRPRPRPPMDPRP,-0.582
4,RRIRMRPPRLPRPRPRPLPNPRP,0.098
5,RRIRWRPPRLPRPRPRPMQLPRP,0.12
6,RRIRNRPPRLPRPRPRPQCQPRP,-0.0453
7,RRIRHRPPRLPRPRPRPATRPRP,0.0209
8,RRIRDRPPRLPRPRPRPYLQPRP,-0.0926
9,RRIRQRPPRLPRPRPRPHPVPRP,0.0674
10,RRIRERPPRLPRPRPRPQWTPRP,-0.0833
11,RRIRTRPPRLPRPRPRPCWTPRP,-0.442
12,RRIRMRPPRLPRPRPRPDTTPRP,0.536
13,RRIRHRPPRLPRPRPRPMSKPRP,-0.203
14,RRIRMRPPRLPRPRPRPFQMPRP,-0.323
15,RRIRCRPPRLPRPRPRPLNNPRP,-0.694
16,RRIRIRPPRLPRPRPRPRAWPRP,0.187
17,RRIRNRPPRLPRPRPRPSGMPRP,-0.207
18,RRIRMRPPRLPRPRPRPKPNPRP,0.954
19,RRIRGRPPRLPRPRPRPPGTPRP,0.982
20,RRIRRRPPRLPRPRPRPADTPRP,0.423
21,RRIRVRPPRLPRPRPRPKVEPRP,0.317
22,RRIRSRPPRLPRPRPRPMGAPRP,0.188

row,Sequence,shrunken log2 fold change
1,RRIRLRPPRLPRPRPRPFDFPRP,-0.281
2,RRIRIRPPRLPRPRPRPYIQPRP,-1.75
3,RRIRLRPPRLPRPRPRPKVKPRP,-0.0219
4,RRIRVRPPRLPRPRPRPHCIPRP,-0.551
5,RRIRCRPPRLPRPRPRPREDPRP,0.0389
6,RRIRERPPRLPRPRPRPVYCPRP,-0.477
7,RRIRVRPPRLPRPRPRPFCYPRP,-0.133
8,RRIRFRPPRLPRPRPRPYIQPRP,-0.841
9,RRIRCRPPRLPRPRPRPVEPPRP,-0.0281
10,RRIRFRPPRLPRPRPRPVFAPRP,0.158
11,RRIRSRPPRLPRPRPRPPLVPRP,-0.0483
12,RRIRARPPRLPRPRPRPPHHPRP,0.675
13,RRIRPRPPRLPRPRPRPVIEPRP,-0.0347
14,RRIRGRPPRLPRPRPRPSMFPRP,0.554
15,RRIRLRPPRLPRPRPRPAPTPRP,0.28
16,RRIRCRPPRLPRPRPRPHFLPRP,-0.657
17,RRIRMRPPRLPRPRPRPHAIPRP,0.224
18,RRIRQRPPRLPRPRPRPRKAPRP,-0.0029
19,RRIRTRPPRLPRPRPRPYVNPRP,-0.189
20,RRIRGRPPRLPRPRPRPMDFPRP,0.213
21,RRIRDRPPRLPRPRPRPAVFPRP,-0.0356

# Source: the supplement of paper PMC9112550, “Optimization of the antimicrobial peptide Bac7 by deep mutational scanning” (BMC Biology, 2022)
